Assay results as given in patent US20140322253A1 (FRED HUTCHINSON CANCER RESEARCH CENTER, published 2014).

B1: CCNA1 341-351 peptide SLIAAAAFCLA (peptide)
peptide: SLIAAAAFCLA
notes: Synthetic peptide; also called the 11-mer
B2: CCNA1 227-235 peptide FLDRFLSCM (peptide)
peptide: FLDRFLSCM
notes: Synthetic peptide; also called the 9-mer

Molecular target: T1, HLA A*0201 on T2 cells (human)
T1 construct: MHC class I on the surface of T2 cells; surface level read with FITC-labeled anti-HLA A,B,C (W6/32)
Assay: HLA stabilization assay on T2 cells, flow cytometry with anti-HLA A,B,C (W6/32)
Description: T2 cells were pulsed with 100 μg/ml peptide in serum-free RPMI containing 1 μg/ml β-2-microglobulin (Sigma) for 16 h. Cells were then washed and incubated for 4 h in the presence of 5 μg/ml brefeldin A (Sigma), and then stained with FITC-labeled anti-HLA A, B, C (clone W6/32, BD Bioscience).

Binder	binding result
B1	binds
SLIAAAAFCL [10-mer SLIAAAAFCL (10-mer 1)]	binds
B2	binds
